In doi:10.1101/2024.01.29.577855:

Target: recombinant yeast TBC-DEG (TBCD, TBCE, Arl2) (yeast) (UniProt P40987)
Assay: SEC

recombinant yeast TBC-DEG (TBCD, TBCE, Arl2) (yeast), sequence (P40987 whole entry, chain 1 of 3): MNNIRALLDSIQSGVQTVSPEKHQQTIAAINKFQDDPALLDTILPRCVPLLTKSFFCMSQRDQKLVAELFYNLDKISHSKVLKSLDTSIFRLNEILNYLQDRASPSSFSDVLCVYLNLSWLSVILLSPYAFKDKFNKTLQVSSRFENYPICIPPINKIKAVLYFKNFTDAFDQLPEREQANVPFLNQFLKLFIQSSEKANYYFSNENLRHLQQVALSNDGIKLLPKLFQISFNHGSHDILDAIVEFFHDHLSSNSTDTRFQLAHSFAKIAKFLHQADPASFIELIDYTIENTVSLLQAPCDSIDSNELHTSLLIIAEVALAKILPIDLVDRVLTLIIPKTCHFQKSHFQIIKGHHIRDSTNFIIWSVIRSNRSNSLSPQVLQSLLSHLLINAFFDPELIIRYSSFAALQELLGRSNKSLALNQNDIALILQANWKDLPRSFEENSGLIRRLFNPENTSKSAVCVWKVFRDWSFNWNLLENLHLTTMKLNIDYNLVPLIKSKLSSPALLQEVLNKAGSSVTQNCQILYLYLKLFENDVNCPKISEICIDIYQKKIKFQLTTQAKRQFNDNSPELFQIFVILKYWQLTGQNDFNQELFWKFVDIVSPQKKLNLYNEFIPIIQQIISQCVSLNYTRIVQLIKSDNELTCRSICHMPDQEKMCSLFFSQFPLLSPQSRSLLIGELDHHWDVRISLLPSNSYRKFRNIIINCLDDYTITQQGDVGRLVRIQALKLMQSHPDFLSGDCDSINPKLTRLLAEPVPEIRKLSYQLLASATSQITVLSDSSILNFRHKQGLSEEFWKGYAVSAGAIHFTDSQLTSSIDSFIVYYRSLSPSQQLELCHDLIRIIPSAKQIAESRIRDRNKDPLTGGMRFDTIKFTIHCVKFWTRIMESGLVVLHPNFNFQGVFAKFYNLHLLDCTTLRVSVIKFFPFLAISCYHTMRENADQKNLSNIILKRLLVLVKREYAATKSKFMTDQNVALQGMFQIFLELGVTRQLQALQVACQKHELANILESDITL
recombinant yeast TBC-DEG (TBCD, TBCE, Arl2) (yeast), sequence (P39937 whole entry, chain 2 of 3, further chain): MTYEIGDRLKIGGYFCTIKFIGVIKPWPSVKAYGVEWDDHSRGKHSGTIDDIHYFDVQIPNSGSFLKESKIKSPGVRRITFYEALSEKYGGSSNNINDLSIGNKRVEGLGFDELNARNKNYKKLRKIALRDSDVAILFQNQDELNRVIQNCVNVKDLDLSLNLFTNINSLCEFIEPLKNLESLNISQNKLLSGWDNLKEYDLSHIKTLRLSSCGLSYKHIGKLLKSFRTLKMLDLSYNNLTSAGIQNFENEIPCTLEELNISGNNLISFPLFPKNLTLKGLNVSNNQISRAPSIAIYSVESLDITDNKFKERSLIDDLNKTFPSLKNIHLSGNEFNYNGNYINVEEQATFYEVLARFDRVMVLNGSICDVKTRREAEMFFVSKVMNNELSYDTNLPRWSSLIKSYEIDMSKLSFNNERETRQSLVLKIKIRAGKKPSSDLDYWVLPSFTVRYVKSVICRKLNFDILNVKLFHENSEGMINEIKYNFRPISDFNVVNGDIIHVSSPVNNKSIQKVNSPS
recombinant yeast TBC-DEG (TBCD, TBCE, Arl2) (yeast), sequence (P39110 whole entry, chain 3 of 3, further chain): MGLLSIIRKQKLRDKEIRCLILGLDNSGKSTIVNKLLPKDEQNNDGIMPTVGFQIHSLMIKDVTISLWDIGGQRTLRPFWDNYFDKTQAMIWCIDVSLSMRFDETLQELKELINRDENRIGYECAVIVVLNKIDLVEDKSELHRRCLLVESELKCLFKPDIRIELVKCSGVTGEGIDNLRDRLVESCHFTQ

porcine brain αβ-tubulin heterodimer (from UniProt P02550 1-451; P02554 1-445) (complex)
stoichiometry N: 1
